According to PMC3912023:

Assays:
[1] = target: CorA, endogenously expressed, purified from Methylomicrobium album BG8 (Methylomicrobium album BG8); test: SEC; calibrated Superdex 75 16/60 gel filtration, 40 mM Tris-HCl pH 8.0, 0.5 M NaCl; data not shown
[2] = target: Recombinant CorA (without the predicted signal peptide) (Methylomicrobium album BG8); test: SEC; calibrated Superdex 75 16/60 gel filtration, 20 mM Tris-HCl pH 7.5, 1 mM CaCl2; data not shown

Row | Substance | stoichiometry N [1] | stoichiometry N [2]
1 | CorA, endogenously expressed, purified from Methylomicrobium album BG8 (natural protein) | 2 | 
2 | Recombinant CorA (without the predicted signal peptide) (natural protein) |  | 2
